Biological target: T1, human DLL3.FLAG (Adipogen #AG-40B-0151, amino acid 27-466) (human, UniProt Q9NYJ7 27-466)
T1 construct: range 27-466; The ELISA used human DLL3.FLAG or human DLL3.HIS (abcam #ab255797, amino acid 27-492); not shown: FLAG tag
T1 sequence (looked up): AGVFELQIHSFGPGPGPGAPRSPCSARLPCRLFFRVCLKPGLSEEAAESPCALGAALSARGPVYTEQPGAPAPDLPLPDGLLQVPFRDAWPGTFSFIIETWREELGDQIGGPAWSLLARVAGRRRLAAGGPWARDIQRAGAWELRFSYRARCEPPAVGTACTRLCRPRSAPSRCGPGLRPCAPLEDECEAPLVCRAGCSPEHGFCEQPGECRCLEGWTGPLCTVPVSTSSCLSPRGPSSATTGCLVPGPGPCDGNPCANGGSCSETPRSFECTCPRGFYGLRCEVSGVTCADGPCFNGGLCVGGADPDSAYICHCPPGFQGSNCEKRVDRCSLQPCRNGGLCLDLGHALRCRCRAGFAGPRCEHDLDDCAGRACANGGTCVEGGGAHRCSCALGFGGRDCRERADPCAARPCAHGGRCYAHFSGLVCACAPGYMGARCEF
Assay: ELISA, plate coated with hDLL3-Flag, goat anti-human IgG Fc-HRP, TMB, A450

- EC50 (read off the curve): ~80 pM
B1: Rovalpituzumab (Creative Biolabs #TAB-216CL) (antibody, V domains shown)
VH: QVQLVQSGAEVKKPGASVKVSCKASGYTFTNYGMNWVRQAPGQGLEWMGWINTYTGEPTYADDFKGRVTMTTDTSTSTAYMELRSLRSDDTAVYYCARIGDSSPSDYWGQGTLVTVSS
VL: EIVMTQSPATLSVSPGERATLSCKASQSVSNDVVWYQQKPGQAPRLLIYYASNRYTGIPARFSGSGSGTEFTLTISSLQSEDFAVYYCQQDYTSPWTFGQGTKLEIK
